From IntAct's records for PubMed 10835346

B1: Dolichol phosphate-mannose biosynthesis regulatory protein (Rattus norvegicus (Rat)), Q9Z325 (parent)
chain: MATGTDQAVGFGLVAVSLIIFTYYTTWVILLPFIDSQHVIHKYFLPRAYAVLLPLAAGLLLLLFVGLFITYVLLKSQKVTKKAQ
partner: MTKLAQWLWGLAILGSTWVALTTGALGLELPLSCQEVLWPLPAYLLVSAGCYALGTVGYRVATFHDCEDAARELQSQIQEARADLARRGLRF

Variants of: B1
Settings: with dpm3_human DPM3, Q9P2X0

Variant	effect of a mutation on the interaction
MATGTDQAVGFGLVAVSLIILTSYTTWVILLPFIDSQHVIHKYFLPRAYAVLLPLAAGLLLLLFVGLFITYVLLKSQKVTKKAQ [F21L;Y23S]	decreasing interaction
